The values that follow come from PMC11382887, “Molecular mechanism of HNF-1A–mediated HNF4A gene regulation and promoter-driven HNF4A-MODY diabetes”.

Data set [1] addresses T1, HNF-1A DD-DBD (HNF-1A 1-279) (UniProt P20823 1-279). Description: ITC; text refers to ref 36; Methods also list RA among the titrations done here; ITC: 20 mM HEPES pH 7.5, 200 mM NaCl, 1 mM TCEP, 30 C, 250 uM dsDNA into 50 uM protein; BLI: streptavidin sensor with BiotinTEG dsDNA, buffer not in material. The following applies: protein: recombinant; tags: His6 removed by TEV; chain copies: 2; label: 5' BiotinTEG on forward strand (BLI only); blunt.

Data set [2] concerns the target T1, HNF-1A DD-DBD (HNF-1A 1-279). Description: ITC; 2:1 protein:DNA stoichiometry; ITC: 20 mM HEPES pH 7.5, 200 mM NaCl, 1 mM TCEP, 30 C, 250 uM dsDNA into 50 uM protein; BLI: streptavidin sensor with BiotinTEG dsDNA, buffer not in material. The following applies: protein: recombinant; tags: His6 removed by TEV; chain copies: 2; label: 5' BiotinTEG on forward strand (BLI only); blunt.

For data set [3] the target is unchanged. Nature of the data set: ITC; increase vs WT not significant; ITC: 20 mM HEPES pH 7.5, 200 mM NaCl, 1 mM TCEP, 30 C, 250 uM dsDNA into 50 uM protein; BLI: streptavidin sensor with BiotinTEG dsDNA, buffer not in material. The following applies: protein: recombinant; tags: His6 removed by TEV; chain copies: 2; label: 5' BiotinTEG on forward strand (BLI only); blunt. In general terms: In ITC the heat of successive injections is recorded.

The target is the same in data set [4]. Nature of the data set: BLI; ITC: 20 mM HEPES pH 7.5, 200 mM NaCl, 1 mM TCEP, 30 C, 250 uM dsDNA into 50 uM protein; BLI: streptavidin sensor with BiotinTEG dsDNA, buffer not in material. The following applies: protein: recombinant; tags: His6 removed by TEV; chain copies: 2; label: 5' BiotinTEG on forward strand; blunt. A general note: BLI is a label-free optical method that tracks binding on a fibre tip over time.

Data set [5] shares this target. Description: ITC; ITC: 20 mM HEPES pH 7.5, 200 mM NaCl, 1 mM TCEP, 30 C, 250 uM dsDNA into 50 uM protein; BLI: streptavidin sensor with BiotinTEG dsDNA, buffer not in material. The following applies: protein: recombinant; tags: His6 removed by TEV; chain copies: 2; label: 5' BiotinTEG on forward strand (BLI only); blunt.
Data set [6] shares this target. Description: BLI; kinetic Kd (koff/kon); ITC: 20 mM HEPES pH 7.5, 200 mM NaCl, 1 mM TCEP, 30 C, 250 uM dsDNA into 50 uM protein; BLI: streptavidin sensor with BiotinTEG dsDNA, buffer not in material. The following applies: protein: recombinant; tags: His6 removed by TEV; chain copies: 2; label: 5' BiotinTEG on forward strand (BLI only); blunt.
Data set [7] shares this target. Nature of the data set: BLI; kinetic Kd (koff/kon); kon ~3x lower, koff ~3x higher; ITC: 20 mM HEPES pH 7.5, 200 mM NaCl, 1 mM TCEP, 30 C, 250 uM dsDNA into 50 uM protein; BLI: streptavidin sensor with BiotinTEG dsDNA, buffer not in material. The following applies: protein: recombinant; tags: His6 removed by TEV; chain copies: 2; label: 5' BiotinTEG on forward strand (BLI only); blunt.

T1 sequence (P20823 1-279): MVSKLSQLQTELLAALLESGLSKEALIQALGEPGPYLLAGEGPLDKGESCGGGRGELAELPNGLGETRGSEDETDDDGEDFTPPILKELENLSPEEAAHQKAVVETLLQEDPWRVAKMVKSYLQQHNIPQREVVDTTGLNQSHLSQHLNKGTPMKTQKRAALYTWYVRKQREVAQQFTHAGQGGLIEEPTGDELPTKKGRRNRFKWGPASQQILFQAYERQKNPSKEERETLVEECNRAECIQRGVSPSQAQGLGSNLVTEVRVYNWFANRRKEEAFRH

B1: RA (rat albumin promoter) (dsDNA)
DNA 1: CTTGGTTAATAATTCACCAGA
DNA 2: TCTGGTGAATTATTAACCAAG
In general, Kd refers to a measure of binding affinity in units of concentration. In the case of B1, in data set [1], the Kd turned out to be 100 ± 50 nM.

B2: P2 WT (P2-HNF4A promoter) (dsDNA)
DNA 1: ACTGGTTACTCTTTAACGTAT
DNA 2: ATACGTTAAAGAGTAACCAGT
Consider B2, for which the Kd in data set [2] is 304 ± 134 nM.

B3: P2 -181G>A (dsDNA)
DNA 1: ACTGATTACTCTTTAACGTAT
DNA 2: ATACGTTAAAGAGTAATCAGT
Turning to B3, in data set [3], the Kd is 600 nM.

B4: Randomized sequence (dsDNA)
DNA 1: TCATCATATCATGCTATAAAT
DNA 2: ATTTATAGCATGATATGATGA
Regarding B4, the binding result in data set [4] is on record as “no binding”.

B5: P2 -169C>T (dsDNA)
DNA 1: ACTGGTTACTCTTTAATGTAT
DNA 2: ATACATTAAAGAGTAACCAGT
Regarding B5, the Kd in data set [5] was 1200 nM. Further, in data set [6], the “Kd fold change vs P2 WT” value was around 5 fold Kd vs P2 WT.

B6: P2 -181G>T (dsDNA)
DNA 1: ACTGTTTACTCTTTAACGTAT
DNA 2: ATACGTTAAAGAGTAAACAGT
Turning to B6, the Kd in data set [5] was 700 nM. Further, the binding signal in data set [7] was around 10 fold Kd vs P2 WT.
